In US20120040375A1:

Experiments:
Biotin-Tn(DT*R)-100 = assay: SPR, Biacore T100, Biotin-Tn(DT*R)-100 on sensor chip SA
[1] = molecular target: biotin-labeled T-47D culture supernatant (MUC1) (human) (UniProt P15941); assay: SPR, Biacore, biotin-labeled T-47D culture supernatant on sensor chip SA
biotin-labeled T-47D culture supernatant (MUC1) (human), sequence (P15941 24-1097 limits assumed): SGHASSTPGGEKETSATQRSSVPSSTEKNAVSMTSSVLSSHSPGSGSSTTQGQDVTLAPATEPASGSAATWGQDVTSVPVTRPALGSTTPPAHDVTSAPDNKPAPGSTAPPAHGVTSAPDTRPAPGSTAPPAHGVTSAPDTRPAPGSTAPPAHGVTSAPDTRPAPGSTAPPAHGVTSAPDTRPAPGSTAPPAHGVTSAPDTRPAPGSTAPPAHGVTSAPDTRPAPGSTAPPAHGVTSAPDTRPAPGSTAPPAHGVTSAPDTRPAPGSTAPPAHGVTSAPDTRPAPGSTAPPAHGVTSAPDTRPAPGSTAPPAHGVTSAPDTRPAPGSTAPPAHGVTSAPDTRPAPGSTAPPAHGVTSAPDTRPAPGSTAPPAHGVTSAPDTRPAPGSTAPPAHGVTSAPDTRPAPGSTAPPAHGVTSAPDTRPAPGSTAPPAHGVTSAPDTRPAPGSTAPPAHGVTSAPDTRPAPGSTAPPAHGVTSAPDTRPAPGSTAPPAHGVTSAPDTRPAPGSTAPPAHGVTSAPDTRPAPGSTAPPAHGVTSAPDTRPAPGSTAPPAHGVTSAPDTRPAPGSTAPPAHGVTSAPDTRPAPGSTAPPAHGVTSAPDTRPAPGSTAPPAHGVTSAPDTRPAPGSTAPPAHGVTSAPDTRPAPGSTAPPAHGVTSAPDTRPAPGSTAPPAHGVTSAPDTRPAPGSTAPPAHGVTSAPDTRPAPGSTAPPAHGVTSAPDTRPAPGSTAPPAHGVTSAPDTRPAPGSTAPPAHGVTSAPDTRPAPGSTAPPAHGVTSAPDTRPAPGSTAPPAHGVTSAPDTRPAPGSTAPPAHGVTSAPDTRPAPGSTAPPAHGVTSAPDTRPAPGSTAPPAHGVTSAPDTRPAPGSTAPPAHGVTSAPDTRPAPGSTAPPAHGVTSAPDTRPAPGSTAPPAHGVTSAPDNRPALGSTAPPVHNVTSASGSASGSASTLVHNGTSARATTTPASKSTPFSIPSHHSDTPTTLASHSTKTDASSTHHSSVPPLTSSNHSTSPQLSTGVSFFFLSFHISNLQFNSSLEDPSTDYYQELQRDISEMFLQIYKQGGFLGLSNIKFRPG

T100 sequence (peptide, as listed by the source limits assumed): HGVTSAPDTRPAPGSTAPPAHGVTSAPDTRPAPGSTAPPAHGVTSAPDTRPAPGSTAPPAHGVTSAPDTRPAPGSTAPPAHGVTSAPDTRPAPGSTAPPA

| Substance | Kd (Biotin-Tn(DT*R)-100) | koff (Biotin-Tn(DT*R)-100) | kon (Biotin-Tn(DT*R)-100) | Kd [1] | koff [1] | kon [1] |
| --- | --- | --- | --- | --- | --- | --- |
| VU-2G7 (antibody) | 180 nM | 0.064 s⁻¹ | 360000 M⁻¹ s⁻¹ | 180 nM | 0.099 s⁻¹ | 550000 M⁻¹ s⁻¹ |
| C595 (antibody) | 720 nM | 0.012 s⁻¹ | 16000 M⁻¹ s⁻¹ | 580 nM | 0.026 s⁻¹ | 44000 M⁻¹ s⁻¹ |
| VU-3C6 (antibody) | 840 nM | 0.051 s⁻¹ | 61000 M⁻¹ s⁻¹ | 150 nM | 0.015 s⁻¹ | 110000 M⁻¹ s⁻¹ |
